Data on two substances can be found in patent US6562788B1, “Topoisomerase II inhibitor” (Laboratoire L. Lafon, priority 1998, dated 2003).

The target of test [1] is T1, topoisomerase II of yeast (Saccharomyces cerevisiae, UniProt P06786).
T1 sequence (P06786 1-1428): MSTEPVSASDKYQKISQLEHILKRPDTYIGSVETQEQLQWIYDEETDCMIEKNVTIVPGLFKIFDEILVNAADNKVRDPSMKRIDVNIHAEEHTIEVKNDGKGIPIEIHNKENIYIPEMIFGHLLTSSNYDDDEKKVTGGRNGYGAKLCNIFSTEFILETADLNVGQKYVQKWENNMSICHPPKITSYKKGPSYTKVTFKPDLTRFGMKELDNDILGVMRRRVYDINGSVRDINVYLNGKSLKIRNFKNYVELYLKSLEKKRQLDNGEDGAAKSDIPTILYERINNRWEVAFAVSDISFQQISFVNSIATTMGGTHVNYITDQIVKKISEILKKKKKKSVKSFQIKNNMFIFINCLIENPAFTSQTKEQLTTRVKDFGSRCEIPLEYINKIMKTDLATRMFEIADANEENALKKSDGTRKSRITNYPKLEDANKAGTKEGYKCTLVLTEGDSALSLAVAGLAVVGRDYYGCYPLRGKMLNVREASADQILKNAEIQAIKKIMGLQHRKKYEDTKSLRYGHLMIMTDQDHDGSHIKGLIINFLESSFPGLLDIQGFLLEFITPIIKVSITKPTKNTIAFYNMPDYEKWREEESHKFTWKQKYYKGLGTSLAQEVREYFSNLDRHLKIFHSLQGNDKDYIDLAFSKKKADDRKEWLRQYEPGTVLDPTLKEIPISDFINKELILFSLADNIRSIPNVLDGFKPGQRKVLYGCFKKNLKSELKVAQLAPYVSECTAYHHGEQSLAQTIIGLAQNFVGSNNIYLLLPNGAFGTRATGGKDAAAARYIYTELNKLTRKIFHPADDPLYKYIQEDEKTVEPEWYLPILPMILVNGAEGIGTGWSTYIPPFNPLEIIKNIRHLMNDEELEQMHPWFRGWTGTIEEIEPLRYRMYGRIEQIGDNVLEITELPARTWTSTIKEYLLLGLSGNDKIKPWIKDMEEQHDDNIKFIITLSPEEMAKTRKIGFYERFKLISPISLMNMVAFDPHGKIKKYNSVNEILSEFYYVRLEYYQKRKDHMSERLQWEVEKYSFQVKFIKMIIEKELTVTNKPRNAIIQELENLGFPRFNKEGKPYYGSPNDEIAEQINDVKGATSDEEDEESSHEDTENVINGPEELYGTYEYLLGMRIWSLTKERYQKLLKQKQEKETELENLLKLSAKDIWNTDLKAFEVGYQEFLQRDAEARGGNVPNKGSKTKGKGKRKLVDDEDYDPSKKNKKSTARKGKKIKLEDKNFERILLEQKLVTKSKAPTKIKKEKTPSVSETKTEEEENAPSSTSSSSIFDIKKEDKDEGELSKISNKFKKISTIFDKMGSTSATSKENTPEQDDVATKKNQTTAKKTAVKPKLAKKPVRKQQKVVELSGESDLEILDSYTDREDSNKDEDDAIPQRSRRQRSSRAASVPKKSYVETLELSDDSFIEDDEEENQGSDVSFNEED
Briefly: relaxation of supercoiled plasmids, topoisomerase II activity assay. It is filed as biochemical. The conditions noted are these: peptide concentration of 0.5 μM. The text has this: (§1) Two enzymatic assays make it possible to estimate the effect of the pentides on topoisomerase II activity: relaxation of supercoiled plasmids and decatenation of kinetoplast DNA (Wang, J. C., An. Rev. Biochem., 54: 665-697, 1985; Maxwell, A., Advances in Protein Chemistry, 38: 69-107, 1986; Liu, L. F., Cell, 19: 697-707, 1980).

Test [2] concerns the target T2, human topoisomerase II alpha (Homo sapiens, UniProt P11388). Described as above. Type of test: biochemical. The conditions noted are these: peptide concentration of 0.5 μM.
Description: as §1

In test [3] the target is T1, topoisomerase II of yeast. Briefly: decatenation of kinetoplast DNA, topoisomerase II activity assay. It is filed as biochemical. The conditions noted are these: peptide concentration of 0.5 μM.
Description: as §1

Test [4] addresses T2, human topoisomerase II alpha. Described as above. It is filed as biochemical. The conditions noted are these: peptide concentration of 0.5 μM.
Description: as §1

For test [5], the system named is topoisomerase II. The conditions noted are these: prior art, literature; cited from earlier work.

T2 sequence (P11388 whole entry): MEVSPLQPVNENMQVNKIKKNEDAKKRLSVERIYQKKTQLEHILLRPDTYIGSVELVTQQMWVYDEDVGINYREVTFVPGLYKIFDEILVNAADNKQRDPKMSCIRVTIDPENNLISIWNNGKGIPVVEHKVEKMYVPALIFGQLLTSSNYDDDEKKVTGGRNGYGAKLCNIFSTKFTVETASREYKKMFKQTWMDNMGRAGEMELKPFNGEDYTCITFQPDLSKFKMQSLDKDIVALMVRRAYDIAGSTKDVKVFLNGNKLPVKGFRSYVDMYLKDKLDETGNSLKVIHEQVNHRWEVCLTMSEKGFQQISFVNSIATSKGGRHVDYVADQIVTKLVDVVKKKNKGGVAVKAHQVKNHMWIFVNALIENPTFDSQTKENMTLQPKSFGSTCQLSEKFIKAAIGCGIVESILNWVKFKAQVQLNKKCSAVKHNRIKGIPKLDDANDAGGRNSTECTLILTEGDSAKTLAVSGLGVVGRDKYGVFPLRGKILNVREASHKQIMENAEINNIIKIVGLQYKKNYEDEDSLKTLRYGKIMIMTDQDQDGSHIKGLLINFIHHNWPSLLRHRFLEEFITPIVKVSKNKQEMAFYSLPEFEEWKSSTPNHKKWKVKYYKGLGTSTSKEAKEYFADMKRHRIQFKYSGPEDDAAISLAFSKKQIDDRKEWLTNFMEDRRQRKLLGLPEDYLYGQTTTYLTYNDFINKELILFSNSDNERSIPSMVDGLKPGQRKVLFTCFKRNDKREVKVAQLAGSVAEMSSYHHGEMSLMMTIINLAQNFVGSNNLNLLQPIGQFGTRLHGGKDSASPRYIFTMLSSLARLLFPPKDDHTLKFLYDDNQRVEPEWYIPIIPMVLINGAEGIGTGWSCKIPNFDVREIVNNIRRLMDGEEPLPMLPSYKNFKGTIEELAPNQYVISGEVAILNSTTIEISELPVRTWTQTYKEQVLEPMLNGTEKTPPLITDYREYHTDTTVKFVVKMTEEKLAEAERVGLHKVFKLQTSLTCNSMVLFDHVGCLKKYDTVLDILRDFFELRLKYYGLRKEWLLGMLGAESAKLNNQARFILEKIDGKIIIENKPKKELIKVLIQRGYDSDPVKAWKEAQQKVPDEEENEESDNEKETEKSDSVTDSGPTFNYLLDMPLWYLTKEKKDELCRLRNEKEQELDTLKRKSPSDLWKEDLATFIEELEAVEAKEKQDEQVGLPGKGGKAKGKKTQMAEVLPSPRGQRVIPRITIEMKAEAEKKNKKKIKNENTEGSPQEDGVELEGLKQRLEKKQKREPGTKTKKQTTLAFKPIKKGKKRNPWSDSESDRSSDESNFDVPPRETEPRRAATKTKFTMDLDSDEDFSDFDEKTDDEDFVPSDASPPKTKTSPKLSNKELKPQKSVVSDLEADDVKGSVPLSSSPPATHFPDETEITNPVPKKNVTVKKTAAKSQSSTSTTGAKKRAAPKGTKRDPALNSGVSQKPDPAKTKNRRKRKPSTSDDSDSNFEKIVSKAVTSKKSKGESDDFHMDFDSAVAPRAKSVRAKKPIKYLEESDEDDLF

Turning to “Thr-Gin-Leu-Asp-Ile-Leu-Arg-Asp-Leu-Phe-Glu-Leu-Arg -Leu-Lys-Tyr-Tyr-Gly-Leu-Arg-Lys-Glu-Phe-Leu-Leu-Gin-Met -Leu-Gly (TQLDILRDLFELRLKYYGLRKEFLLQMLG) [example 1]”, the “inhibition of topoisomerase II activity (relaxation of supercoiled plasmids)” value in test [1] and in test [2] was “totally inhibits” each time. Further, the “inhibition of topoisomerase II activity (decatenation of kinetoplast DNA)” value in test [3] and in test [4] was “totally inhibits” throughout.
As for “sequence 1013 to 1041 of human topoisomerase II alpha: topoisomerase II fragment, corresponding to sequence 1013 to 1041 of human topoisomerase II alpha, described by Frére Gallois et al.”, the “inhibitory activity for topoisomerase II” value in test [5] is given as “inhibitory activity”.
